The target of this assay is SARS-CoV-2 Receptor Binding Domain (RBD) (SARS-CoV-2, UniProt P0DTC2). As to the kind of experiment: ELISA. The following applies: both partners purified. A general note: ELISA stands for enzyme-linked immunosorbent assay.

The EC50 is the concentration needed to bring the measured effect to its halfway point. A low value points to an effect from little substance.

B1: NIH-CoVnb-112 (VHH)
VHH: DVQLQESGGGLVQPGGSLRLSCAASGLTLDYYAIGWFRQAPGKEREGVSCISSSDGSTYYADSVKGRFTTSRDNAKNTVYLQMNSLKPEDTAVYYCAAVPSTYYSGTYYYTCHPGGMDYWGKGTQVTVSS
notes: also called lead nanobody candidate; anti-SARS-CoV-2 RBD nanobody; source: E. coli BL21 (DE3), periplasm by osmotic shock, purified (HisTrap, Superdex 75)
Regarding B1, the EC50 worked out at 1.11 nM.

(Values after article PMC7755911 (Scientific Reports, 2020).)
